Values joined by “and” are separate entries in the source; they are usually repeats but may differ in a detail not shown here. Identical values can stand only once. Where only a bound is given, the exact number is not on record here.

Series [1] in a line: Heptamer stability on rechromatography (Superdex 200 size exclusion column). Type of series: physicochemical. As to conditions: for Percent heptamer: after second gel filtration. From the text:
To examine the effect of Lys188 substitution on REGγ heptamer stability, the wildtype and Lys 188 variant heptamers were rechromatographed on the Superdex 200 (26/60) size exclusion column used for purification. […] Replacement of Lys 188 by Pro or Phe severely affected the stability of REGγ heptamer.
Background: SEC sorts molecules by how far they enter the pores of the column.

Series [2] deals with T1, proteasome (Homo sapiens, UniProt P28072+P28074+Q99436). In words: Proteasomal hydrolysis of natural peptides P21 and BBC1 (HPLC). Particulars: 21-residue peptide P21; result in words. The series is classed as biochemical. Here is the method:
Proteasomal hydrolysis of a 21 -residue peptide (P21) and a 49-residue peptide (BBC1) were prepared as described by Zhang et al. (1998), Proteasome Activation by REG Molecules Lacking Homolog-specific Inserts, J. Biol. Chem. 273:9501-09. Digestion products were applied to a C18 HPLC column and separated with a gradient of 0-45% acetonitrile containing 0.1% trifluoroacetic acid. To identify the products derived from P21, fractions were collected manually, concentrated, and subjected to mass spectrometry.

The target in series [3] is T2, Human red blood cell proteasomes (Homo sapiens, UniProt P28072+P28074+Q99436).
T2 construct: Human red blood cell proteasomes; from tissue; host or cells: human red blood cells
The series is described as follows: Activation of fluorogenic peptide hydrolysis by the proteasome in the presence of REG variants. As to conditions: for Stimulation of cleavage (x-fold) LLE: substrate LLE-βNA (PGPH site); for Stimulation of cleavage (x-fold) LLVY: substrate LLVY-MCA (chymotrypsin-like site); for Stimulation of cleavage (x-fold) LRR: substrate LRR-MCA (trypsin-like site). The series is classed as biochemical. Here is the method:
Human red blood cell proteasomes (170 ng) were mixed with increasing amounts of purified REG variants. The reactions were started by adding 50 μl of 200 μMscu-LLVY-MCA, Boc-LRR-MCA, or Boc-LLE-βNA in 10 mM Tris, pH 7.5. After a 10 min incubation, the reaction was quenched with 200μl of cold 100% ethanol, and the released MCA or βNA ws measured fluometrically. Each data point represents the mean of three measurements from a single experiment. […] REGα (▪), REGγ(□), REGγ(K188E) or REGγ(K188D) (●), REGγ(K188H) (∘), REGγ(K188Q) or REGγ(K188N) (Δ), REGγ(K188A) (♦). The data for REGγ(K188E) and REGγ(K188D) and for REGγ(K188Q) and REGγ(K188N) were combined since their activities were indistinguishable.
Because each positive variant identified in the previous example included a mutation at Lys188, site-directed mutagenesis was used to generate a series of amino acid substitutions at this residue. Twelve mutants were constructed in which Lys188 of REGγ was changed to Ala, Arg, Asn, Asp, Cys, Gln, Glu, His, Ile, Phe, Pro, or Ser. Wild-type REGγ and the Lys 188 variants were expressed in E. coli, purified, and the activation specificity of each protein was measured using the diagnostic peptides LLVY (SEQ ID NO:1)-MCA, LRR-MCA, and LLE-βNA. Except for the K188R variant, all Lys 188 mutants stimulated the hydrolysis of LRR-MCA by the proteasome to the same extent or slightly better than wild-type REGγ. Substitution of negatively-charged Glu or Asp for the positively-charged Lys188 produced mutants with activation properties almost identical to REGα.
To determine the degree to which the activation specificity of REGγ(K188E/D) variants matches that of REGα, proteasomal cleavage of a series of fluorogenic peptides was measured in the presence of each activator.

In series [4] the target is T2, Human red blood cell proteasomes. Described as above. Particulars: for Stimulation of cleavage (x-fold) AAF-MCA: substrate AAF-MCA; for Stimulation of cleavage (x-fold) DEVD-MCA: substrate DEVD(SEQ ID NO: 8)-MCA; for Stimulation of cleavage (x-fold) FSR-MCA: substrate FSR-MCA; for Stimulation of cleavage (x-fold) IEGR-MCA: substrate IEGR(SEQ ID NO: 5)-MCA; for Stimulation of cleavage (x-fold) IETD-MCA: substrate IETD(SEQ ID NO: 6)-MCA; for Stimulation of cleavage (x-fold) LGHD-MCA: substrate LGHD(SEQ ID NO: 7)-MCA; for Stimulation of cleavage (x-fold) LY-MCA: substrate LY-MCA; for Stimulation of cleavage (x-fold) VLK-MCA: substrate VLK-MCA; for Stimulation of cleavage (x-fold) YVAD-MCA: substrate YVAD(SEQ ID NO: 9)-MCA. Type of series: biochemical.

The target in series [5] is T1, proteasome. The series is described as follows: REGα(N146Y)/REGβ(N135Y) competition assay for relative proteasome affinity. Type of series: binding. As to conditions: in terms of REGα(N146Y)/REGβ(N135Y) competition; wild-type REGγ 100. The source says: As a measure of the relative affinities of REGγ and the REGγLys188 mutants for the proteasome, a competition assay was used. See Li et al. (2000), The Proteasome Activator 11S REG or PA28: Chimeras Implicate Carboxyl-Terminal Sequences in Oligomerization and Proteasome Binding But Not in the Activation of Specific Proteasome Catalytic Subunits. J. Mol. Biol. 299:641-54. All REGγLys188 mutants were relatively resistant to REGα(N146Y)/REGβ(N135Y) competition with apparent proteasome affinities varying from 40% to 90% that of wild-type REGγ.

Series [6] has as its target T3, proteasomes (Homo sapiens, UniProt P28072+P28074+Q99436). The series is described as follows: Proteasomal degradation of the fluorescein-tagged C31 peptide of APP. The series is classed as biochemical. Particulars: result in words. Here is the method: A 31-residue C-terminal peptide (C31) of APP, the transmembrane protein that gives rise to amyloid plaque forming Aβ peptides characteristic of Alzheimer's disease, was synthesized using routine peptide synthesis. A fluorescein tag was added to the peptide. C31 peptide is cytotoxic. See Lu et al. (2000), a Second Cytotoxic Proteolytic Peptide Derived from Amyloid Beta-Protein Precursor, Nat. Med. 6:397-404.
The C31 was incubated with proteasomes alone, proteasomes+REGγ, proteasome+REGγ(K188E) or proteasomes+REGα/β, and degradation was assayed as described in Example 8.

Series [7] deals with proteasome β subunits (T, CT/PGPH) (Homo sapiens, UniProt P28072+P28074+Q99436). The series is described as follows: Affinity labeling of proteasome β subunits with 125I-YL3-VS in the presence of REGs. Type of series: biochemical. Particulars: mean±S.D. From the text:
To obtain estimates of substrate access to the proteasome's central chamber in the presence of REGγ and REGγ(K188E), the active site-directed probe, ^125I-YL3-VS, which covalently modifies all three active β-subunits in an activity dependent manner, was used. […] The phosphoimages show increased labeling of CT/PGPH and T subunits in the presence of REGγ and REGγ(K188E). The data further reveal that REGγ increased the rate of T-subunit labeling 4.7±2.6 (mean±S.D.) fold and the rate of CT/PGPH labeling 4.4±1.7 (mean±S.D.) fold over that seen with proteasome alone. Stimulation by the mutant REGγ(K188E) was greater, being 10.8±4.9 (mean±S.D.) fold for the T-subunit and 11.9±4.8 (mean±S.D.) fold for the CT/PGPH subunit. […] The finding that REGγ increased labeling of the CT and PGPH subunits was unexpected as the wild type activator suppresses hydrolysis of the CT substrate sLLVY (SEQ ID NO:1)-MCA.

For series [8], the target named is T3, proteasomes. In words: Proteasomal degradation of fluorescein-labeled polyQ peptides (molecular exclusion chromatography). The series is classed as biochemical. Here is the method:
The following peptides were synthesized using routine peptide synthesis:
Each peptide was incubated for 5 hr with proteasomes alone, proteasomes+REGγ, proteasome+REGγ(K188E) or proteasomes+REGα/β. Degradation was assayed by molecular exclusion chromatography using fluorescein as a signal (see FIG. 2). The degradation products were identified by HPLC-MS (FIG. 3). […] By contrast, in the presence of REGγ(K188E) the various polyQ peptides were degraded 5 to 10-fold faster.

Where [9] appears, read: proteasome + activator, 5 hr incubation.

Regarding “REGα: 11S REG proteasome activator subunit closely related to REGβ and REGγ”, the Percent heptamer result in series [1] is “˜95%”. The “Hydrolysis of P21 by the proteasome” value with proteasome [2] is listed as “markedly increased”. For the same substance, in series [3], the “Stimulation of cleavage (x-fold) LLE” value amounted to 9 x-fold, the “Stimulation of cleavage (x-fold) LLVY” value came to 16 x-fold and the “Stimulation of cleavage (x-fold) LRR” value was found to be 16 x-fold. For the same substance, in series [4], the “Stimulation of cleavage (x-fold) AAF-MCA” value worked out at 6 x-fold, the “Stimulation of cleavage (x-fold) DEVD-MCA” value worked out at 10 x-fold, the “Stimulation of cleavage (x-fold) FSR-MCA” value was found to be 10 x-fold and the “Stimulation of cleavage (x-fold) IEGR-MCA” value is recorded as 3 x-fold. In series [4], the “Stimulation of cleavage (x-fold) IETD-MCA” value came out at 30 x-fold, the “Stimulation of cleavage (x-fold) LGHD-MCA” value was determined as 11 x-fold, the “Stimulation of cleavage (x-fold) LY-MCA” value worked out at 5 x-fold and the “Stimulation of cleavage (x-fold) VLK-MCA” value is recorded as 7 x-fold. Further, the “Stimulation of cleavage (x-fold) YVAD-MCA” value in series [4] is on record as 9 x-fold. Besides, the “Relative affinity for proteasome” value in the series with proteasome [5] came to 0.

As for “REGγ: wild-type 11S REG proteasome activator subunit, a homo-heptamer found principally in the nucleus”, in the series with proteasomes [6], the “Degradation of C31 peptide by proteasomes” value is “Only trace amounts”. Also, the “Percentage that remained heptamers on rechromatography” value in series [1] (Superdex 200 second gel filtration) is listed as “remained fully heptameric”. The Percent heptamer in series [1] was greater than 95%. The “Hydrolysis of P21 by the proteasome” value in the series with proteasome [2] is recorded as “decreased”. Also, in series [3], the “Stimulation of cleavage (x-fold) LLE” value came out at 0.6 x-fold; the “Stimulation of cleavage (x-fold) LLVY” value came to 0.4 x-fold; the “Stimulation of cleavage (x-fold) LRR” value was 12 x-fold and 11 x-fold. In series [7], the “Increase in rate of CT/PGPH labeling over proteasome alone” value is reported as 4.4±1.7 fold and the “Increase in rate of T-subunit labeling over proteasome alone” value is recorded as 4.7±2.6 fold. Further, the “Stimulation of cleavage of the LRR-MCA substrate” value in series [4] (compared to the basal rate in the absence of REGγ (Example 10)) is given as 10-20 fold. In addition, in series [4] (result in words), the “Proteasomal cleavage of sucLLVY-MCA” value is “does not promote”. In series [4], the “Stimulation of cleavage (x-fold) AAF-MCA” value was determined as 1 x-fold, the “Stimulation of cleavage (x-fold) DEVD-MCA” value is given as 2 x-fold, the “Stimulation of cleavage (x-fold) FSR-MCA” value turned out to be 7 x-fold and the “Stimulation of cleavage (x-fold) IEGR-MCA” value was 1 x-fold. For the same substance, in series [4], the “Stimulation of cleavage (x-fold) IETD-MCA” value was determined as 1 x-fold, the “Stimulation of cleavage (x-fold) LGHD-MCA” value amounted to 1 x-fold, the “Stimulation of cleavage (x-fold) LY-MCA” value worked out at 2 x-fold and the “Stimulation of cleavage (x-fold) VLK-MCA” value turned out to be 5 x-fold. In series [4], the “Stimulation of cleavage (x-fold) YVAD-MCA” value came to 0.9 x-fold. For the same substance, in the series with proteasomes [8] (setting [9]), the “% Degraded, substrate F1-EPQPQ” value turned out to be 5%; the “% Degraded, substrate F1-KSQPQ” value turned out to be 15%; the “% Degraded, substrate F1-QHQ” value worked out at 5%; the “% Degraded, substrate F1-QPQ” value is given as 5%. Besides, the “% Degraded, substrate F1-QQQ” value with proteasomes [8] (setting [9]) came to 15%. In the series with proteasomes [8] (result in words), the “Degradation of polyQ peptides” value was “resistant to degradation”. Besides, the “Relative affinity for proteasome” value with proteasome [5] is reported as 100.

As for “γK188D: mutant REGγ in which Lys188 was changed to Asp”, the “Heptamers dissociated during the second gel filtration” value in series [1] (Superdex 200) is “More than half”. Also, in series [1], the Percent heptamer is 50%. The “Hydrolysis of P21 by the proteasome” value with proteasome [2] is recorded as “markedly increased”. Besides, the “Activation properties compared with REGα” value in series [3] (small fluorogenic peptides, result in words) was “virtually identical to REGα”. In addition, in series [3], the “Stimulation of cleavage (x-fold) LLE” value amounted to 9 x-fold, the “Stimulation of cleavage (x-fold) LLVY” value was found to be 14 x-fold and the “Stimulation of cleavage (x-fold) LRR” value was found to be 15 x-fold. In series [4], the “Stimulation of cleavage (x-fold) AAF-MCA” value is reported as 4 x-fold, the “Stimulation of cleavage (x-fold) DEVD-MCA” value is 9 x-fold, the “Stimulation of cleavage (x-fold) FSR-MCA” value was 7 x-fold and the “Stimulation of cleavage (x-fold) IEGR-MCA” value was determined as 2 x-fold. Moreover, in series [4], the “Stimulation of cleavage (x-fold) IETD-MCA” value is 26 x-fold, the “Stimulation of cleavage (x-fold) LGHD-MCA” value amounted to 11 x-fold, the “Stimulation of cleavage (x-fold) LY-MCA” value came out at 3 x-fold and the “Stimulation of cleavage (x-fold) VLK-MCA” value was determined as 6 x-fold. The “Stimulation of cleavage (x-fold) YVAD-MCA” value in series [4] is listed as 8 x-fold. Besides, in the series with proteasome [5], the “Relative affinity for proteasome” value is given as 90.

These data come from patent US20040233833A1, “Methods for identifying compounds with thrapeutic potential for treatment of central Neurodegenerative diseases resulting from abnormal protein or peptide accumulation” (priority 2001, published 2004).
